Assay results taken from PMC6050298, “Highly active enzymes by automated combinatorial backbone assembly and sequence design” (Nature Communications, 2018).

Tests used:
purified protein [1] = substrate: O=[N+]([O-])c1ccc(O[C@@H]2OC[C@@H](O[C@@H]3OC[C@@H](O)[C@H](O)[C@H]3O)[C@H](O)[C@H]2O)cc1; test: purified protein; type: biochemical, Geobacillus stearothermophilus; settings: 37 °C, 50 mM Tris pH 6.5, 150 mM NaCl, MBP fusion
purified protein [2] = substrate: O=[N+]([O-])c1ccc(O[C@@H]2OC[C@@H](O[C@@H]3OC[C@@H](O)[C@H](O)[C@H]3O)[C@H](O)[C@H]2O)cc1; test: purified protein; type: biochemical, synthetic construct; settings: 37 °C, 50 mM Tris pH 6.5, 150 mM NaCl, MBP fusion

B1: Xylanase from Geobacillus stearothermophilus (PDB ID: 4PUD) (Geobacillus stearothermophilus) (protein)
chain: KPHISALNAPQLDQRYKNEFTIGAAVEPYQLQNEKDVQMLKRHFNSIVAENVMKPISIQPEEGKFNFEQADRIVKFAKANGMDIRFHTLVWHSQVPQWFFLDKEGKPMVNETDPVKREQNKQLLLKRLETHIKTIVERYKDDIKYWDVVNEVVGDDGKLRNSPWYQIAGIDYIKVAFQAARKYGGDNIKLYMNDYNTEVEPKRTALYNLVKQLKEEGVPIDGIGHQSHIQIGWPSEAEIEKTINMFAALGLDNQITELDVSMYGWPPRAYPTYDAIPKQKFLDQAARYDRLFKLYEKLSDKISNVTFWGIADNHTWLDSRADVYYDANGNVVVDPNAPYAKVEKGKGKDAPFVFGPDYKVKPAYWAIIDHK
notes: synthetic codon-optimised gene, N-terminal His6-MBP fusion kept in assay, E. coli BL21 DE3; monomer; 4PUD names the template structure
In the case of B1, the Km (purified protein [1]) is reported as 160 ± 20 µM and the kcat (purified protein [1]) is reported as 6.47 ± 0.04 s⁻¹.

B2: xyl3.1 (synthetic construct) (protein)
chain: TIGSEFKPHISALNAPSLAQRYKDYFYIGAAVEPYQTTKEKDAKMLQRHFNMIVAENAMKPAALEPTEGNFQWADADRIVQFAKENGMELRFHTLVWHNQTPDWFFLDREGKPMVEETDPQKREENRELLLQRLENHIRAVVLRYKDDIKNWDVVNEVVEPNDPGGMRNSPWYQITGTEYIEVAFRAAREAGGEDIKLYMNDYNTEQEPKREYIYRLIKKLLEKGVPIDGVGHQAHVTIDRPPVDEIKKTIQRFADLGLDNQITELDVSLYGWPPRPAYPTYDAIPEERFQAQADRYRQLFELFEELKDHISAVTFWGIADNHTWLDDRAREYNDGVGKDAPFVFDPNYRVKPAYWAIINHK
notes: computational design (105 mutations to nearest natural protein), N-terminal His6-MBP fusion kept in assay
B2 showed a Km (purified protein [2]) of 1820 ± 600 µM and a kcat (purified protein [2]) of 17 ± 5 s⁻¹.
